What is called Ki is the dissociation constant of the complex between target and ligand, obtained from inhibition or displacement.

Numbered stars: 1 amine (or outer) side, 2 acyl side, 3 side chain; on linkers, the order of the positions; unused ones are H or OH. Square brackets hold non-standard residues; d marks the D form. Side chains are listed from the residue outwards. Ends that are not written are not given here. * marks the point of attachment. C20 diacid = O=C(O)CCCCCCCCCCCCCCCCCCC(=O)*; γGlu = O=C(O)[C@H](CCC(=O)[*:2])N[*:1]; AEEA = NCCOCCOCC(=O)O; Aib = CC(C)(N)C(=O)O

We go through five molecules from patent publication US20200024322A1 (Eli Lilly, published 2020).

One assay has as its target T1, human glucagon receptor (human, UniProt P47871 26-477).
T1 construct: whole, on cells; Used as crude membranes of stably transfected HEK293 cells; also called hGcgR; hGLcgR
The assay can be described thus: SPA, [125I]-Gcg displacement, hGcgR membranes.

Another assay addresses T2, human GIP receptor (human, UniProt P48546 22-466).
T2 construct: whole, on cells; Used as crude membranes of stably transfected CHO cells; also called hGIPR
T2 sequence (looked up): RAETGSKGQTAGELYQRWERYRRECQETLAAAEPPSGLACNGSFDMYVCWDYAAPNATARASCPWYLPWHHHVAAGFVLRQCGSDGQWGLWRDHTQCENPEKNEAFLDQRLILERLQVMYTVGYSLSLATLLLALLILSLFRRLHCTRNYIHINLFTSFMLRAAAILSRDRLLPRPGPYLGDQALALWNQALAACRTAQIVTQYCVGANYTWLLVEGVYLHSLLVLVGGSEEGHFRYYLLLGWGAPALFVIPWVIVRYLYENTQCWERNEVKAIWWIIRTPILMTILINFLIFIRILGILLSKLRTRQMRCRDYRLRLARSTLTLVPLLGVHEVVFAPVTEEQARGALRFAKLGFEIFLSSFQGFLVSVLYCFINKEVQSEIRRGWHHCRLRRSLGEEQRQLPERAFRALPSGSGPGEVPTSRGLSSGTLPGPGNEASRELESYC
The assay is described as follows: SPA, [125I]-GIP displacement, hGIPR membranes.

The target of the next assay is T3, human GLP-1 receptor (human, UniProt P43220 24-463).
T3 construct: whole, on cells; Used as crude membranes of stably transfected HEK293 cells; also called hGLP1R; hGLP-1R
The assay is described as follows: SPA, [125I]-GLP-1 displacement, hGLP-1R membranes.

T1 sequence (P47871 26-477): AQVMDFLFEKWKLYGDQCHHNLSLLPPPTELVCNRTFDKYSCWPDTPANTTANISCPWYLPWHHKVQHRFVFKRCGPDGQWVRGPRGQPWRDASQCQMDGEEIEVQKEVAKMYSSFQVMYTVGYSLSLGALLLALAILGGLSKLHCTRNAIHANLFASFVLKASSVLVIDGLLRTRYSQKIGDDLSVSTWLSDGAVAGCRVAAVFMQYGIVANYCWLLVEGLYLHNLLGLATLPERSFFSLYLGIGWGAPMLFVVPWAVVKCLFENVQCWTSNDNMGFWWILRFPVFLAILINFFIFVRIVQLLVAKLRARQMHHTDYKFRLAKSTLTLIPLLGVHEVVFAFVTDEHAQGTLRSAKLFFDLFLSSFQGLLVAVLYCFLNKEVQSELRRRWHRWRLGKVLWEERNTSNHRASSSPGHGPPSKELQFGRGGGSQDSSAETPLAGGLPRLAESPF

B1: Example 40 (peptide)
peptide: Y[Aib]EGTFTSDYSILLDKIAQ[Aib]AFIEYLIEGGK([AEEA-AEEA-γGlu-C20 diacid])SSGAPPPS-NH2
modifications: N-terminus assumed
SMILES: CC[C@H](C)[C@H](NC(=O)[C@H](CCCCN)NC(=O)[C@H](CC(=O)O)NC(=O)[C@H](CC(C)C)NC(=O)[C@H](CC(C)C)NC(=O)[C@@H](NC(=O)[C@H](CO)NC(=O)[C@H](Cc1ccc(O)cc1)NC(=O)[C@H](CC(=O)O)NC(=O)[C@H](CO)NC(=O)[C@@H](NC(=O)[C@H](Cc1ccccc1)NC(=O)[C@@H](NC(=O)CNC(=O)[C@H](CCC(=O)O)NC(=O)C(C)(C)NC(=O)[C@@H](N)Cc1ccc(O)cc1)[C@@H](C)O)[C@@H](C)O)[C@@H](C)CC)C(=O)N[C@@H](C)C(=O)N[C@@H](CCC(N)=O)C(=O)NC(C)(C)C(=O)N[C@@H](C)C(=O)N[C@@H](Cc1ccccc1)C(=O)N[C@H](C(=O)N[C@@H](CCC(=O)O)C(=O)N[C@@H](Cc1ccc(O)cc1)C(=O)N[C@@H](CC(C)C)C(=O)N[C@H](C(=O)N[C@@H](CCC(=O)O)C(=O)NCC(=O)NCC(=O)N[C@@H](CCCCNC(=O)COCCOCCNC(=O)COCCOCCNC(=O)CC[C@H](NC(=O)CCCCCCCCCCCCCCCCCCC(=O)O)C(=O)O)C(=O)N[C@@H](CO)C(=O)N[C@@H](CO)C(=O)NCC(=O)N[C@@H](C)C(=O)N1CCC[C@H]1C(=O)N1CCC[C@H]1C(=O)N1CCC[C@H]1C(=O)N[C@@H](CO)C(N)=O)[C@@H](C)CC)[C@@H](C)CC
For B1, the inhibition constant (Ki) in the assay with human glucagon receptor came to 150 nM; with human GIP receptor, 0.0345 nM; with human GLP-1 receptor it was 7.56 nM.

B2: Example 42 (peptide)
peptide: Y[Aib]EGTFTSDYSILLDKIAQ[Aib]AFIEYLIEGGPSK([AEEA-AEEA-γGlu-C20 diacid])GAPPPS-NH2
modifications: N-terminus assumed
SMILES: CC[C@H](C)[C@H](NC(=O)[C@H](CCCCN)NC(=O)[C@H](CC(=O)O)NC(=O)[C@H](CC(C)C)NC(=O)[C@H](CC(C)C)NC(=O)[C@@H](NC(=O)[C@H](CO)NC(=O)[C@H](Cc1ccc(O)cc1)NC(=O)[C@H](CC(=O)O)NC(=O)[C@H](CO)NC(=O)[C@@H](NC(=O)[C@H](Cc1ccccc1)NC(=O)[C@@H](NC(=O)CNC(=O)[C@H](CCC(=O)O)NC(=O)C(C)(C)NC(=O)[C@@H](N)Cc1ccc(O)cc1)[C@@H](C)O)[C@@H](C)O)[C@@H](C)CC)C(=O)N[C@@H](C)C(=O)N[C@@H](CCC(N)=O)C(=O)NC(C)(C)C(=O)N[C@@H](C)C(=O)N[C@@H](Cc1ccccc1)C(=O)N[C@H](C(=O)N[C@@H](CCC(=O)O)C(=O)N[C@@H](Cc1ccc(O)cc1)C(=O)N[C@@H](CC(C)C)C(=O)N[C@H](C(=O)N[C@@H](CCC(=O)O)C(=O)NCC(=O)NCC(=O)N1CCC[C@H]1C(=O)N[C@@H](CO)C(=O)N[C@@H](CCCCNC(=O)COCCOCCNC(=O)COCCOCCNC(=O)CC[C@H](NC(=O)CCCCCCCCCCCCCCCCCCC(=O)O)C(=O)O)C(=O)NCC(=O)N[C@@H](C)C(=O)N1CCC[C@H]1C(=O)N1CCC[C@H]1C(=O)N1CCC[C@H]1C(=O)N[C@@H](CO)C(N)=O)[C@@H](C)CC)[C@@H](C)CC
Regarding B2, the Ki with human glucagon receptor was 160 nM; with human GIP receptor, 0.0514 nM; with human GLP-1 receptor, 13.2 nM.

B3: Example 41 (peptide)
peptide: Y[Aib]EGTFTSDYSILLDKIAQ[Aib]AFIEYLIEGGPK([AEEA-AEEA-γGlu-C20 diacid])SGAPPPS-NH2
modifications: N-terminus assumed
SMILES: CC[C@H](C)[C@H](NC(=O)[C@H](CCCCN)NC(=O)[C@H](CC(=O)O)NC(=O)[C@H](CC(C)C)NC(=O)[C@H](CC(C)C)NC(=O)[C@@H](NC(=O)[C@H](CO)NC(=O)[C@H](Cc1ccc(O)cc1)NC(=O)[C@H](CC(=O)O)NC(=O)[C@H](CO)NC(=O)[C@@H](NC(=O)[C@H](Cc1ccccc1)NC(=O)[C@@H](NC(=O)CNC(=O)[C@H](CCC(=O)O)NC(=O)C(C)(C)NC(=O)[C@@H](N)Cc1ccc(O)cc1)[C@@H](C)O)[C@@H](C)O)[C@@H](C)CC)C(=O)N[C@@H](C)C(=O)N[C@@H](CCC(N)=O)C(=O)NC(C)(C)C(=O)N[C@@H](C)C(=O)N[C@@H](Cc1ccccc1)C(=O)N[C@H](C(=O)N[C@@H](CCC(=O)O)C(=O)N[C@@H](Cc1ccc(O)cc1)C(=O)N[C@@H](CC(C)C)C(=O)N[C@H](C(=O)N[C@@H](CCC(=O)O)C(=O)NCC(=O)NCC(=O)N1CCC[C@H]1C(=O)N[C@@H](CCCCNC(=O)COCCOCCNC(=O)COCCOCCNC(=O)CC[C@H](NC(=O)CCCCCCCCCCCCCCCCCCC(=O)O)C(=O)O)C(=O)N[C@@H](CO)C(=O)NCC(=O)N[C@@H](C)C(=O)N1CCC[C@H]1C(=O)N1CCC[C@H]1C(=O)N1CCC[C@H]1C(=O)N[C@@H](CO)C(N)=O)[C@@H](C)CC)[C@@H](C)CC
Take B3: the values for the Ki with human glucagon receptor, in the assay with human GIP receptor and in the assay with human GLP-1 receptor were 165 nM, 0.0551 nM and 13.4 nM, respectively.

B4: Example 44 (peptide)
peptide: Y[Aib]EGTFTSDYSILLDKIAQ[Aib]AFIEYLIEGGPSSGK([AEEA-AEEA-γGlu-C20 diacid])PPPS-NH2
modifications: N-terminus assumed
SMILES: CC[C@H](C)[C@H](NC(=O)[C@H](CCCCN)NC(=O)[C@H](CC(=O)O)NC(=O)[C@H](CC(C)C)NC(=O)[C@H](CC(C)C)NC(=O)[C@@H](NC(=O)[C@H](CO)NC(=O)[C@H](Cc1ccc(O)cc1)NC(=O)[C@H](CC(=O)O)NC(=O)[C@H](CO)NC(=O)[C@@H](NC(=O)[C@H](Cc1ccccc1)NC(=O)[C@@H](NC(=O)CNC(=O)[C@H](CCC(=O)O)NC(=O)C(C)(C)NC(=O)[C@@H](N)Cc1ccc(O)cc1)[C@@H](C)O)[C@@H](C)O)[C@@H](C)CC)C(=O)N[C@@H](C)C(=O)N[C@@H](CCC(N)=O)C(=O)NC(C)(C)C(=O)N[C@@H](C)C(=O)N[C@@H](Cc1ccccc1)C(=O)N[C@H](C(=O)N[C@@H](CCC(=O)O)C(=O)N[C@@H](Cc1ccc(O)cc1)C(=O)N[C@@H](CC(C)C)C(=O)N[C@H](C(=O)N[C@@H](CCC(=O)O)C(=O)NCC(=O)NCC(=O)N1CCC[C@H]1C(=O)N[C@@H](CO)C(=O)N[C@@H](CO)C(=O)NCC(=O)N[C@@H](CCCCNC(=O)COCCOCCNC(=O)COCCOCCNC(=O)CC[C@H](NC(=O)CCCCCCCCCCCCCCCCCCC(=O)O)C(=O)O)C(=O)N1CCC[C@H]1C(=O)N1CCC[C@H]1C(=O)N1CCC[C@H]1C(=O)N[C@@H](CO)C(N)=O)[C@@H](C)CC)[C@@H](C)CC
Take B4: the Ki with human glucagon receptor was 121 nM; with human GIP receptor, 0.0516 nM; in the assay with human GLP-1 receptor it was 10.6 nM.

B5: Example 43 (peptide)
peptide: Y[Aib]EGTFTSDYSILLDKIAQ[Aib]AFIEYLIEGGPSSK([AEEA-AEEA-γGlu-C20 diacid])APPPS-NH2
modifications: N-terminus assumed
SMILES: CC[C@H](C)[C@H](NC(=O)[C@H](CCCCN)NC(=O)[C@H](CC(=O)O)NC(=O)[C@H](CC(C)C)NC(=O)[C@H](CC(C)C)NC(=O)[C@@H](NC(=O)[C@H](CO)NC(=O)[C@H](Cc1ccc(O)cc1)NC(=O)[C@H](CC(=O)O)NC(=O)[C@H](CO)NC(=O)[C@@H](NC(=O)[C@H](Cc1ccccc1)NC(=O)[C@@H](NC(=O)CNC(=O)[C@H](CCC(=O)O)NC(=O)C(C)(C)NC(=O)[C@@H](N)Cc1ccc(O)cc1)[C@@H](C)O)[C@@H](C)O)[C@@H](C)CC)C(=O)N[C@@H](C)C(=O)N[C@@H](CCC(N)=O)C(=O)NC(C)(C)C(=O)N[C@@H](C)C(=O)N[C@@H](Cc1ccccc1)C(=O)N[C@H](C(=O)N[C@@H](CCC(=O)O)C(=O)N[C@@H](Cc1ccc(O)cc1)C(=O)N[C@@H](CC(C)C)C(=O)N[C@H](C(=O)N[C@@H](CCC(=O)O)C(=O)NCC(=O)NCC(=O)N1CCC[C@H]1C(=O)N[C@@H](CO)C(=O)N[C@@H](CO)C(=O)N[C@@H](CCCCNC(=O)COCCOCCNC(=O)COCCOCCNC(=O)CC[C@H](NC(=O)CCCCCCCCCCCCCCCCCCC(=O)O)C(=O)O)C(=O)N[C@@H](C)C(=O)N1CCC[C@H]1C(=O)N1CCC[C@H]1C(=O)N1CCC[C@H]1C(=O)N[C@@H](CO)C(N)=O)[C@@H](C)CC)[C@@H](C)CC
As to B5, the Ki in the assay with human glucagon receptor is 134 nM; in the assay with human GIP receptor, 0.101 nM; with human GLP-1 receptor it was 11.8 nM.
